* marks the point of attachment. Biotin = O=C1N[C@H]2[C@H](CS[C@H]2CCCCC(=O)*)N1; AEEA = NCCOCCOCC(=O)O
What was measured:
Experiment in all cases: peptide-walk ELISA, biotin-peptide on streptavidin plate, triple determination
[1] = target: T1, biotinylated 20mer TLT-1 stalk peptide 12 (N-terminal biotin via 8-amino-3,6-dioxaoctanoic acid (bio-Oeg))
T1 construct: also called well A12
T1 peptide: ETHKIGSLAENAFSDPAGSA
Description: (§1) Epitope mapping by peptide walk. The peptide walking ELISA defined the minimal binding region of the peptide. This was established by coating biotinylated peptides with one residue frameshift in the stalk region of TLT-1 in streptavidin plates followed by binding of the antibody of interest (mAb 0061). A secondary antibody was added for detection and binding was measured at 450 nm. Positive control: binding to biotinylated TLT-1.
(§2) 1) 20mer peptide mapping with one residue frameshift (20,1) (see materials) 2) 16mer peptide mapping with one residue frameshift (16,1) (see materials) [0687] 1. Plate was prre-washed 3× with 250 μl wash buffer [0688] 2. 100 μl Biotinylated peptide-solution was added (from Masterplate 10000× diluted, one peptide pr well) [0689] 3. Incubated at RT for 1 hour or +5° C. over night [0690] 4. Washed 3× with wash buffer [0691] 5. 100 μl Primary antibody was added (dilution see above) [0692] 6. Incubated at RT for 1 hour [0693] 7. Washed 3× with wash buffer [0694] 8. 100 μl Secondary antibody was added (dilution see above) [0695] 9. Incubated at RT for 1 hour [0696] 10. Washed 3× with wash buffer [0697] 11. 100 μl Substrate/Develop buffer was added (Reaction time 3 min) [0698] 12. 100 μl 2M H3PO4 was added [0699] 13. Endpoint was read at 450 nm

[2] = target: T2, biotinylated 16mer hTLT-1 stalk peptide 36 (SMILES …)
T2 construct: also called well C12
T2 peptide: {Biotin-AEEA}-EEEETHKIGSLAENAF-NH2
Description: as §1, §2

[3] = target: T3, biotinylated 16mer hTLT-1 stalk peptide 39 (SMILES …)
T3 construct: also called well D 3
T3 peptide: {Biotin-AEEA}-ETHKIGSLAENAFSDP-NH2
Description: as §1, §2

[4] = target: T4, biotinylated 16mer hTLT-1 stalk peptide 42 (SMILES …)
T4 construct: also called well D 6
T4 peptide: {Biotin-AEEA}-KIGSLAENAFSDPAGS-NH2
Description: as §1, §2

[5] = target: T5, biotinylated 20mer TLT-1 stalk peptide 10 (N-terminal biotin via 8-amino-3,6-dioxaoctanoic acid (bio-Oeg))
T5 construct: also called well A10
T5 peptide: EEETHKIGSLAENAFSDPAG
Description: as §1, §2

[6] = target: T6, biotinylated 20mer TLT-1 stalk peptide 16 (N-terminal biotin via 8-amino-3,6-dioxaoctanoic acid (bio-Oeg))
T6 construct: also called well B 4
T6 peptide: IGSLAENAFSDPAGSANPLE
Description: as §1, §2

[7] = target: T7, biotinylated 16mer hTLT-1 stalk peptide 37 (SMILES …)
T7 construct: also called well D 1
T7 peptide: {Biotin-AEEA}-EEETHKIGSLAENAFS-NH2
Description: as §1, §2

[8] = target: T8, biotinylated 20mer TLT-1 stalk peptide 9 (N-terminal biotin via 8-amino-3,6-dioxaoctanoic acid (bio-Oeg))
T8 construct: also called well A 9
T8 peptide: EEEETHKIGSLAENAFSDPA
Description: as §1, §2

[9] = target: T9, biotinylated 20mer TLT-1 stalk peptide 7 (N-terminal biotin via 8-amino-3,6-dioxaoctanoic acid (bio-Oeg))
T9 construct: also called well A 7
T9 peptide: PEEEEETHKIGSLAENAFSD
Description: as §1, §2

[10] = target: T10, biotinylated 20mer TLT-1 stalk peptide 13 (N-terminal biotin via 8-amino-3,6-dioxaoctanoic acid (bio-Oeg))
T10 construct: also called well B 1
T10 peptide: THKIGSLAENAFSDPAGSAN
Description: as §1, §2

[11] = target: T11, biotinylated 20mer TLT-1 stalk peptide 15 (N-terminal biotin via 8-amino-3,6-dioxaoctanoic acid (bio-Oeg))
T11 construct: also called well B 3
T11 peptide: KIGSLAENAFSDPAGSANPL
Description: as §1, §2

[12] = target: T12, biotinylated 20mer TLT-1 stalk peptide 11 (N-terminal biotin via 8-amino-3,6-dioxaoctanoic acid (bio-Oeg))
T12 construct: also called well A11
T12 peptide: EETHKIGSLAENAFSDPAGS
Description: as §1, §2

[13] = target: T13, biotinylated 16mer hTLT-1 stalk peptide 40 (SMILES …)
T13 construct: also called well D 4
T13 peptide: {Biotin-AEEA}-THKIGSLAENAFSDPA-NH2
Description: as §1, §2

[14] = target: T14, biotinylated 20mer TLT-1 stalk peptide 5 (N-terminal biotin via 8-amino-3,6-dioxaoctanoic acid (bio-Oeg))
T14 construct: also called well A 5
T14 peptide: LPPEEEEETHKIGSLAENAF
Description: as §1, §2

[15] = target: T15, biotinylated 16mer hTLT-1 stalk peptide 41 (SMILES …)
T15 construct: also called well D 5
T15 peptide: {Biotin-AEEA}-HKIGSLAENAFSDPAG-NH2
Description: as §1, §2

[16] = target: T16, biotinylated 16mer hTLT-1 stalk peptide 38 (SMILES …)
T16 construct: also called well D 2
T16 peptide: {Biotin-AEEA}-EETHKIGSLAENAFSD-NH2
Description: as §1, §2

[17] = target: T17, biotinylated 20mer TLT-1 stalk peptide 8 (N-terminal biotin via 8-amino-3,6-dioxaoctanoic acid (bio-Oeg))
T17 construct: also called well A 8
T17 peptide: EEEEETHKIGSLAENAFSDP
Description: as §1, §2

[18] = target: T18, biotinylated 20mer TLT-1 stalk peptide 14 (N-terminal biotin via 8-amino-3,6-dioxaoctanoic acid (bio-Oeg))
T18 construct: also called well B 2
T18 peptide: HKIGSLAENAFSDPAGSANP
Description: as §1, §2

[19] = target: T19, biotinylated 20mer TLT-1 stalk peptide 6 (N-terminal biotin via 8-amino-3,6-dioxaoctanoic acid (bio-Oeg))
T19 construct: also called well A 6
T19 peptide: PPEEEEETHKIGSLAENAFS
Description: as §1, §2

absorbance at 450 nm [1]: > 3 A450 | absorbance at 450 nm [2]: > 3 A450 | absorbance at 450 nm [3]: > 3 A450 | absorbance at 450 nm [4]: > 3 A450 | absorbance at 450 nm [5]: > 3 A450 | absorbance at 450 nm [6]: > 3 A450 | absorbance at 450 nm [7]: > 3 A450 | absorbance at 450 nm [8]: > 3 A450 | absorbance at 450 nm [9]: > 3 A450 | absorbance at 450 nm [10]: > 3 A450 | absorbance at 450 nm [11]: > 3 A450 | absorbance at 450 nm [12]: > 3 A450 | absorbance at 450 nm [13]: > 3 A450 | absorbance at 450 nm [14]: > 3 A450 | absorbance at 450 nm [15]: > 3 A450 | absorbance at 450 nm [16]: > 3 A450 | absorbance at 450 nm [17]: > 3 A450 | absorbance at 450 nm [18]: > 3 A450 | absorbance at 450 nm [19]: > 3 A450
B1: mAb 0061 HC2; LC2 (antibody, V domains shown)
VH: EVKLLESGGGLVQPGGSLKLSCAASGFDFSRYWMTWVRQAPGKGLEWIGEINPDSSTINYNPSLKDKFIISRDNAKNTLYLQMSEVRSEDTALYYCASGVFTSWGQGTLVTVSA
VL: DVVMTQTPLSLPVSLGDQASISCRSSQSLVHRNGNTYFHWALQKPGQSPKLLIYKVSNRFSGVPDRFSGSGSGTDFTLKISRVEAEDLGVYFCSQSTHVPYTFGGGTKLEIKR
notes: also called 0197-0000-0061; 0012HC.T60N + 0012LC.C36A

Source: patent publication US20120178908A1 (Novo Nordisk, published 2012)
